Measured values as given in the supplement of paper PMC7877785.
± gives the uncertainty stated by the source.

Assay: self-splicing fitness, log relative to wild type (ln ratio); higher = more splicing; Tetrahymena group I intron in knt gene, E. coli kanamycin selection, DiMSum; sequences stand for … in CUCUCU…GGAGGGAAAAGUUAUCAGGCAUGCACCUGGUAGCUAGUCUUUAAACCAAUAGAUUGCAUCGGUUUAAAAGGCAAGACCGUCAAAUUGCGGGAAAGGGGUCAACAGCCGUUCAGUACCAAGUCUCAGGGGAAACUUUGAGAUGGCCUUGCAAAGGGUAUGGUAAUAAGCUGACGGACAUGGUCCUAACCACGCAGCCAAGUCCUAAGUCAACAGAUCUUCUGUUGAUAUGGAUGCAGUUCACAGACUAAAUGUCGGUCGGGGAAGAUGUAUUCUUCUCAUAAGAUAUAGUCGGACCUCUCCUUAAUGGGAGCUAGCGGAUGAAGUGAUGCAACACUGGAGCCGCUGGGAACUAAUUUGUAUGCGAAAGUAUAUUGAUUAGUUUUGGAGUACUCGUGGUCG
In short: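 Library with all eight P1ex-region intron nucleotides randomised, intron inside the knt kanamycin-resistance gene on pET-22b(+), in E. coli BL21(DE3). Cells grew overnight at 37°C or 30°C on LB agar with or without 25 μg/mL kanamycin (plus 100 μg/mL carbenicillin, 50 μM IPTG, 0.2% rhamnose), in six replicate transformations. Pooled colonies were amplicon-sequenced on Illumina HiSeq 2500. DiMSum fitness is the error-weighted combination of wild-type-normalised replicate fold changes, kanamycin versus none.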

Sequence | self-splicing fitness (ln) (30 °C) | self-splicing fitness (ln) (37 °C)
GAAUAGCAAUAUUACGAUGC | -1.02 ± 0.095 | -0.245 ± 0.12
GAAUAGCAAUAUUACGCAAA | -3.06 ± 0.38 | -1.75 ± 0.27
GAAUAGCAAUAUUACGCAAU | -2.31 ± 0.11 | -0.898 ± 0.15
GAAUAGCAAUAUUACGCCAG | -2.58 ± 0.24 | -1.69 ± 0.3
GAAUAGCAAUAUUACGCGCG | -0.825 ± 0.1 | -0.591 ± 0.13
GAAUAGCAAUAUUACGCUAG | -2.22 ± 0.16 | -0.535 ± 0.14
GAAUAGCAAUAUUACGGACC | -0.00208 ± 0.1 | 0.0435 ± 0.18
GAAUAGCAAUAUUACGGCGA | -1.11 ± 0.11 | -0.3 ± 0.11
GAAUAGCAAUAUUACGGCUA | -0.51 ± 0.15 | -0.595 ± 0.14
GAAUAGCAAUAUUACGGGAG | – | -3.35 ± 0.33
GAAUAGCAAUAUUACGGGCG | -1.16 ± 0.078 | -0.509 ± 0.1
GAAUAGCAAUAUUACGGGUG | -3.74 ± 0.15 | -1.03 ± 0.095
GAAUAGCAAUAUUACGUGCA | -0.851 ± 0.083 | -0.317 ± 0.11
GAAUAGCAAUAUUACGUUCG | -1.16 ± 0.13 | -0.541 ± 0.17
GAAUAGCAAUAUUACGUUUG | -1.61 ± 0.15 | -1.05 ± 0.15
GACAAGCAAUAUUACGAAAC | -2.29 ± 0.18 | -2.5 ± 0.17
GACAAGCAAUAUUACGAGAC | -2.95 ± 0.27 | -2.29 ± 0.27
GACAAGCAAUAUUACGAGGG | -4.27 ± 0.18 | -2.81 ± 0.15
GACAAGCAAUAUUACGAUAA | -1.68 ± 0.11 | -0.345 ± 0.1
GACAAGCAAUAUUACGAUGA | -0.527 ± 0.078 | -0.303 ± 0.085
GACAAGCAAUAUUACGAUGG | -2.52 ± 0.1 | -2.14 ± 0.16
GACAAGCAAUAUUACGCACC | -1.43 ± 0.14 | -0.635 ± 0.19
GACAAGCAAUAUUACGCGGC | -2.75 ± 0.17 | -3.11 ± 0.21
GACAAGCAAUAUUACGGAGU | -3.03 ± 0.1 | -0.954 ± 0.1

Sequence | self-splicing fitness (ln) (30 °C) | self-splicing fitness (ln) (37 °C)
GACAAGCAAUAUUACGGCGA | -0.213 ± 0.074 | 0.21 ± 0.085
GACAAGCAAUAUUACGGCGC | -0.29 ± 0.098 | 0.11 ± 0.12
GACAAGCAAUAUUACGGGAC | -2.13 ± 0.25 | -1.02 ± 0.4
GACAAGCAAUAUUACGUAGA | -2.31 ± 0.092 | -0.707 ± 0.097
GACAAGCAAUAUUACGUCAG | -3.3 ± 0.23 | -2.21 ± 0.2
GACAAGCAAUAUUACGUGCC | -1.69 ± 0.14 | -1.21 ± 0.17
GACAAGCAAUAUUACGUGGC | -4.6 ± 0.32 | -1.61 ± 0.11
GACAAGCAAUAUUACGUGUA | -1.56 ± 0.071 | -0.227 ± 0.078
GACAAGCAAUAUUACGUUGC | -3.63 ± 0.14 | -2.31 ± 0.16
GACCAGCAAUAUUACGAAAG | -2.49 ± 0.1 | -2.58 ± 0.18
GACCAGCAAUAUUACGAAGA | -1.44 ± 0.14 | -0.589 ± 0.12
GACCAGCAAUAUUACGAAUC | -0.584 ± 0.096 | -0.196 ± 0.1
GACCAGCAAUAUUACGAGAA | -1.67 ± 0.15 | -1.05 ± 0.15
GACCAGCAAUAUUACGAGAC | -0.715 ± 0.15 | -1.49 ± 0.18
GACCAGCAAUAUUACGAGUA | -1.03 ± 0.087 | 0.128 ± 0.084
GACCAGCAAUAUUACGAUAA | -1.53 ± 0.094 | -1.13 ± 0.1
GACCAGCAAUAUUACGAUAG | -1.73 ± 0.074 | -1.45 ± 0.11
GACCAGCAAUAUUACGCCUG | -2.16 ± 0.11 | -0.614 ± 0.12
GACCAGCAAUAUUACGCGUC | -4.75 ± 0.38 | -2.54 ± 0.22
GACCAGCAAUAUUACGCUCA | -0.152 ± 0.059 | -0.295 ± 0.079
GACCAGCAAUAUUACGCUCU | -0.6 ± 0.061 | 0.0283 ± 0.089
GACCAGCAAUAUUACGCUGU | -3.34 ± 0.15 | -1.54 ± 0.095
GACCAGCAAUAUUACGGGGG | -1.92 ± 0.08 | -1.17 ± 0.089
GACCAGCAAUAUUACGGUAG | -0.241 ± 0.066 | 0.668 ± 0.085

Sequence | self-splicing fitness (ln) (30 °C) | self-splicing fitness (ln) (37 °C)
GACCAGCAAUAUUACGGUCA | -1.44 ± 0.099 | -0.935 ± 0.1
GACCAGCAAUAUUACGGUGC | -2.31 ± 0.067 | -2.09 ± 0.09
GACCAGCAAUAUUACGUACG | -1.34 ± 0.074 | -0.696 ± 0.088
GACCAGCAAUAUUACGUCGU | -0.568 ± 0.052 | -0.218 ± 0.069
GACCAGCAAUAUUACGUGAC | -1.27 ± 0.069 | -1.7 ± 0.11
GACCAGCAAUAUUACGUGCA | -0.378 ± 0.07 | -0.122 ± 0.086
GACCAGCAAUAUUACGUGUA | -0.635 ± 0.06 | 0.255 ± 0.074
GACCAGCAAUAUUACGUGUC | -3.52 ± 0.16 | -3.05 ± 0.24
GACCAGCAAUAUUACGUUAG | -3.82 ± 0.24 | -2.79 ± 0.2
GACCAGCAAUAUUACGUUUU | -0.363 ± 0.036 | -0.174 ± 0.052
GACGAGCAAUAUUACGACCC | -0.0053 ± 0.24 | -0.307 ± 0.22
GACGAGCAAUAUUACGAGGC | -3.33 ± 0.18 | -2.85 ± 0.29
GACGAGCAAUAUUACGCAUC | – | -2.06 ± 0.36
GACGAGCAAUAUUACGCCUU | -3.3 ± 0.4 | -1.48 ± 0.24
GACGAGCAAUAUUACGCGCC | -2.74 ± 0.19 | -1.59 ± 0.25
GACGAGCAAUAUUACGCGUG | -3.11 ± 0.29 | -1.77 ± 0.21
GACGAGCAAUAUUACGCUGA | -3.74 ± 0.35 | -1.95 ± 0.24
GACGAGCAAUAUUACGGGAU | -4.33 ± 0.28 | -1.74 ± 0.18
GACGAGCAAUAUUACGGUAC | -1.99 ± 0.39 | -1.98 ± 0.34
GACGAGCAAUAUUACGGUAG | -4.01 ± 0.36 | -2.18 ± 0.22
GACGAGCAAUAUUACGGUGC | -2.72 ± 0.28 | -1.47 ± 0.25
GACGAGCAAUAUUACGUUGU | -3.4 ± 0.14 | -2.74 ± 0.16
GACUAGCAAUAUUACGACUA | -1.04 ± 0.16 | -0.443 ± 0.14
GACUAGCAAUAUUACGAGCC | -1.28 ± 0.17 | -0.877 ± 0.26

Sequence | self-splicing fitness (ln) (30 °C) | self-splicing fitness (ln) (37 °C)
GACUAGCAAUAUUACGAGGA | -2.29 ± 0.17 | -1.43 ± 0.14
GACUAGCAAUAUUACGAUAG | -2.95 ± 0.16 | -1.17 ± 0.12
GACUAGCAAUAUUACGCAAC | -0.979 ± 0.15 | -1.54 ± 0.19
GACUAGCAAUAUUACGCAAG | -4.58 ± 0.36 | -1.6 ± 0.15
GACUAGCAAUAUUACGCACA | -0.58 ± 0.13 | 0.00566 ± 0.14
GACUAGCAAUAUUACGCCGA | -0.898 ± 0.21 | -0.421 ± 0.2
GACUAGCAAUAUUACGCGGG | -2.7 ± 0.22 | -1.75 ± 0.18
GACUAGCAAUAUUACGCUGA | -1.16 ± 0.14 | -0.638 ± 0.14
GACUAGCAAUAUUACGGACU | -0.117 ± 0.11 | -0.611 ± 0.14
GACUAGCAAUAUUACGGAUC | -0.87 ± 0.096 | -0.304 ± 0.14
GACUAGCAAUAUUACGGCGU | -0.502 ± 0.11 | -0.198 ± 0.1
GACUAGCAAUAUUACGGCUA | -2.4 ± 0.17 | -0.921 ± 0.12
GACUAGCAAUAUUACGGGAC | -2.29 ± 0.17 | -1.44 ± 0.19
GACUAGCAAUAUUACGGUAA | -0.126 ± 0.084 | -0.197 ± 0.078
GACUAGCAAUAUUACGGUCC | – | -1.49 ± 0.42
GACUAGCAAUAUUACGGUGA | -1.07 ± 0.11 | -0.694 ± 0.097
GACUAGCAAUAUUACGUACA | -1.02 ± 0.14 | -0.0348 ± 0.15
GACUAGCAAUAUUACGUCCA | -2.24 ± 0.29 | -1.47 ± 0.26
GACUAGCAAUAUUACGUGGC | -3.56 ± 0.24 | -2.54 ± 0.21
GAGAAGCAAUAUUACGAAGG | -2.97 ± 0.24 | –
GAGAAGCAAUAUUACGAAUC | -3.91 ± 0.31 | -1.12 ± 0.19
GAGAAGCAAUAUUACGAAUG | -3.46 ± 0.28 | -1.7 ± 0.18
GAGAAGCAAUAUUACGACCG | -0.945 ± 0.32 | -0.457 ± 0.27
GAGAAGCAAUAUUACGACGC | -0.75 ± 0.15 | -0.292 ± 0.17
